US20260167699A1 (Chugai, published 2026)

B1: GpH7-A5/GpH7-B3 variant L235_09D/GpL16-k0 (antibody, human IgG1, kappa)
heavy 1: not shown
heavy 2: not shown
light: DIVMTQSPLSLPVTPGEPASISCQASESLVHSNRNTYLHWYLQKPGQSPQLLIYKVSNRFSGVPDRFSGSGSGTDFTLKISRVEAEDVGVYYCSQNTHVPPTFGQGTKVEIERTVAAPSVFIFPPSDEQLKSGTASVVCLLNNFYPREAKVQWKVDNALQSGNSQESVTEQDSKDSTYSLSSTLTLSKADYEKHKVYACEVTHQGLSSPVTKSFNRGEC
notes: copies: 1 + 1 + 2
B2: GpH7-A5/GpH7-B3 variant L328_10E/GpL16-k0 (antibody, human IgG1, kappa)
heavy 1: not shown
heavy 2: not shown
light: DIVMTQSPLSLPVTPGEPASISCQASESLVHSNRNTYLHWYLQKPGQSPQLLIYKVSNRFSGVPDRFSGSGSGTDFTLKISRVEAEDVGVYYCSQNTHVPPTFGQGTKVEIERTVAAPSVFIFPPSDEQLKSGTASVVCLLNNFYPREAKVQWKVDNALQSGNSQESVTEQDSKDSTYSLSSTLTLSKADYEKHKVYACEVTHQGLSSPVTKSFNRGEC
notes: copies: 1 + 1 + 2
B3: GpH7-A5/GpH7-B3 variant N325_13S/GpL16-k0 (antibody, human IgG1, kappa)
heavy 1: not shown
heavy 2: not shown
light: DIVMTQSPLSLPVTPGEPASISCQASESLVHSNRNTYLHWYLQKPGQSPQLLIYKVSNRFSGVPDRFSGSGSGTDFTLKISRVEAEDVGVYYCSQNTHVPPTFGQGTKVEIERTVAAPSVFIFPPSDEQLKSGTASVVCLLNNFYPREAKVQWKVDNALQSGNSQESVTEQDSKDSTYSLSSTLTLSKADYEKHKVYACEVTHQGLSSPVTKSFNRGEC
notes: copies: 1 + 1 + 2
B4: GpH7-A5/GpH7-B3 variant L328_14T/GpL16-k0 (antibody, human IgG1, kappa)
heavy 1: not shown
heavy 2: not shown
light: DIVMTQSPLSLPVTPGEPASISCQASESLVHSNRNTYLHWYLQKPGQSPQLLIYKVSNRFSGVPDRFSGSGSGTDFTLKISRVEAEDVGVYYCSQNTHVPPTFGQGTKVEIERTVAAPSVFIFPPSDEQLKSGTASVVCLLNNFYPREAKVQWKVDNALQSGNSQESVTEQDSKDSTYSLSSTLTLSKADYEKHKVYACEVTHQGLSSPVTKSFNRGEC
notes: copies: 1 + 1 + 2
B5: GpH7-A5/GpH7-B3 variant L328_18N/GpL16-k0 (antibody, human IgG1, kappa)
heavy 1: not shown
heavy 2: not shown
light: DIVMTQSPLSLPVTPGEPASISCQASESLVHSNRNTYLHWYLQKPGQSPQLLIYKVSNRFSGVPDRFSGSGSGTDFTLKISRVEAEDVGVYYCSQNTHVPPTFGQGTKVEIERTVAAPSVFIFPPSDEQLKSGTASVVCLLNNFYPREAKVQWKVDNALQSGNSQESVTEQDSKDSTYSLSSTLTLSKADYEKHKVYACEVTHQGLSSPVTKSFNRGEC
notes: copies: 1 + 1 + 2
B6: GpH7-A5/GpH7-B3 variant L235_19Q/GpL16-k0 (antibody, human IgG1, kappa)
heavy 1: not shown
heavy 2: not shown
light: DIVMTQSPLSLPVTPGEPASISCQASESLVHSNRNTYLHWYLQKPGQSPQLLIYKVSNRFSGVPDRFSGSGSGTDFTLKISRVEAEDVGVYYCSQNTHVPPTFGQGTKVEIERTVAAPSVFIFPPSDEQLKSGTASVVCLLNNFYPREAKVQWKVDNALQSGNSQESVTEQDSKDSTYSLSSTLTLSKADYEKHKVYACEVTHQGLSSPVTKSFNRGEC
notes: copies: 1 + 1 + 2
B7: GpH7-A5/GpH7-B3 variant L328_16H/GpL16-k0 (antibody, human IgG1, kappa)
heavy 1: not shown
heavy 2: not shown
light: DIVMTQSPLSLPVTPGEPASISCQASESLVHSNRNTYLHWYLQKPGQSPQLLIYKVSNRFSGVPDRFSGSGSGTDFTLKISRVEAEDVGVYYCSQNTHVPPTFGQGTKVEIERTVAAPSVFIFPPSDEQLKSGTASVVCLLNNFYPREAKVQWKVDNALQSGNSQESVTEQDSKDSTYSLSSTLTLSKADYEKHKVYACEVTHQGLSSPVTKSFNRGEC
notes: copies: 1 + 1 + 2
B8: GpH7-A5/GpH7-B3 variant L328_02A/GpL16-k0 (antibody, human IgG1, kappa)
heavy 1: not shown
heavy 2: not shown
light: DIVMTQSPLSLPVTPGEPASISCQASESLVHSNRNTYLHWYLQKPGQSPQLLIYKVSNRFSGVPDRFSGSGSGTDFTLKISRVEAEDVGVYYCSQNTHVPPTFGQGTKVEIERTVAAPSVFIFPPSDEQLKSGTASVVCLLNNFYPREAKVQWKVDNALQSGNSQESVTEQDSKDSTYSLSSTLTLSKADYEKHKVYACEVTHQGLSSPVTKSFNRGEC
notes: copies: 1 + 1 + 2
B9: GpH7-A5/GpH7-B3 variant N325_09D/GpL16-k0 (antibody, human IgG1, kappa)
heavy 1: not shown
heavy 2: not shown
light: DIVMTQSPLSLPVTPGEPASISCQASESLVHSNRNTYLHWYLQKPGQSPQLLIYKVSNRFSGVPDRFSGSGSGTDFTLKISRVEAEDVGVYYCSQNTHVPPTFGQGTKVEIERTVAAPSVFIFPPSDEQLKSGTASVVCLLNNFYPREAKVQWKVDNALQSGNSQESVTEQDSKDSTYSLSSTLTLSKADYEKHKVYACEVTHQGLSSPVTKSFNRGEC
notes: copies: 1 + 1 + 2
B10: GpH7-A5/GpH7-B3 variant L235_10E/GpL16-k0 (antibody, human IgG1, kappa)
heavy 1: not shown
heavy 2: not shown
light: DIVMTQSPLSLPVTPGEPASISCQASESLVHSNRNTYLHWYLQKPGQSPQLLIYKVSNRFSGVPDRFSGSGSGTDFTLKISRVEAEDVGVYYCSQNTHVPPTFGQGTKVEIERTVAAPSVFIFPPSDEQLKSGTASVVCLLNNFYPREAKVQWKVDNALQSGNSQESVTEQDSKDSTYSLSSTLTLSKADYEKHKVYACEVTHQGLSSPVTKSFNRGEC
notes: copies: 1 + 1 + 2
B11: GpH7-A5/GpH7-B3 variant L328_15Y/GpL16-k0 (antibody, human IgG1, kappa)
heavy 1: not shown
heavy 2: not shown
light: DIVMTQSPLSLPVTPGEPASISCQASESLVHSNRNTYLHWYLQKPGQSPQLLIYKVSNRFSGVPDRFSGSGSGTDFTLKISRVEAEDVGVYYCSQNTHVPPTFGQGTKVEIERTVAAPSVFIFPPSDEQLKSGTASVVCLLNNFYPREAKVQWKVDNALQSGNSQESVTEQDSKDSTYSLSSTLTLSKADYEKHKVYACEVTHQGLSSPVTKSFNRGEC
notes: copies: 1 + 1 + 2

Each binder was assayed against T1, FcγRIIIa (human, UniProt P08637 17-208) (assay: SPR (Biacore);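 further: antibody variants captured on an SPR sensor chip, with FcγRIIIa passed over as analyte in HBS-EP+ buffer at 25 °C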).
T1 construct: extracellular domain; also called 3a; FcγRIIIa extracellular domain
T1 sequence (P08637 other isoform, or with tags, fused parts or gaps): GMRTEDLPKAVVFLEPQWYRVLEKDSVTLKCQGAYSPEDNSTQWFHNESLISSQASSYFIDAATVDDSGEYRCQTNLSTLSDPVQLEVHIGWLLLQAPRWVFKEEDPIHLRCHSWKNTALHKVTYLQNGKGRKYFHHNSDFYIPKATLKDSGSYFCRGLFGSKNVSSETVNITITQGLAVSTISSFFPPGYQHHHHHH
Protocol: The antibody of interest was analyzed for its interaction with FcγR using a BiaCore™ T100, BiaCore™ A100, or BiaCore™ 4000 surface plasmon resonance system (GE Healthcare Japan Corp.). The running buffer used was HBS-EP+ (GE Healthcare Japan Corp.). The assay temperature was set to 25° C. The sensor chips used were: a chip prepared by immobilizing antigenic peptides onto Series S Sensor Chip CM5 (GE Healthcare Japan Corp.) by the amine coupling method; a chip prepared by immobilizing antigenic peptides biotinylated in advance onto Series S Sensor Chip SA (certified) (GE Healthcare Japan Corp.) through their interaction; a chip prepared by immobilizing protein L (ACTIGEN, BioVision, Inc.) onto Series S Sensor Chip CM5 (GE Healthcare Japan Corp.); and a chip prepared by immobilizing protein A/G (Thermo Fisher Scientific K.K.) onto Series S Sensor Chip CM5 (GE Healthcare Japan Corp.). The antibody of interest was captured onto any of these chips and allowed to interact with FcγR diluted with a running buffer. The antibody captured on the chip was washed off through the reaction of 10 mM glycine-HCl (pH 1.5) to regenerate the chip, which was repetitively used.
For B1, the “He/Con 3a” value was 88.5 % of GpH7-A5/GpH7-B3/GpL16-k0.
In the case of B2, the “He/Con 3a” value is reported as 54.9 % of GpH7-A5/GpH7-B3/GpL16-k0.
With B3 the “He/Con 3a” value was 71.9 % of GpH7-A5/GpH7-B3/GpL16-k0.
For B4, the “He/Con 3a” value was 77.4 % of GpH7-A5/GpH7-B3/GpL16-k0.
For B5, the “He/Con 3a” value was 51.1 % of GpH7-A5/GpH7-B3/GpL16-k0.
B6 was tested, and the “He/Con 3a” value was 68.1 % of GpH7-A5/GpH7-B3/GpL16-k0.
For B7, the “He/Con 3a” value was 55.9 % of GpH7-A5/GpH7-B3/GpL16-k0.
In the case of B8, the “He/Con 3a” value is reported as 81.3 % of GpH7-A5/GpH7-B3/GpL16-k0.
With B9 the “He/Con 3a” value was 53 % of GpH7-A5/GpH7-B3/GpL16-k0.
For B10, the “He/Con 3a” value was 85.6 % of GpH7-A5/GpH7-B3/GpL16-k0.
In the case of B11, the “He/Con 3a” value is reported as 70.2 % of GpH7-A5/GpH7-B3/GpL16-k0.
